US20110135645A1

Assays:
[1] = target: F protein of HMPV genogroup A2 strain (virus in plaque reduction assay) (human metapneumovirus) (UniProt Q6WB98); test: cell-based or functional assay
[2] = target: F protein of HMPV genogroup B2 strain (virus in plaque reduction assay) (human metapneumovirus) (UniProt Q6WB98); test: cell-based or functional assay
[3] = target: F protein of HMPV genogroup B1 strain (virus in plaque reduction assay) (human metapneumovirus) (UniProt Q6WB98); test: cell-based or functional assay
[4] = target: F protein of HMPV genogroup A1 strain (virus in plaque reduction assay) (human metapneumovirus) (UniProt Q6WB98); test: cell-based or functional assay
[5] = target: HMPV F ectodomain lacking the transmembrane domain (FΔTM), 6xHis-tagged, strain TN/92-4 (genogroup A2) (human metapneumovirus); test: SPR (BIAcore 2000), HMPV FΔTM immobilized, 1:1 Langmuir fit

**Q.** Which Neut. Conc. (60% plaque reduction) [1] does the source give for Fab DSλ7 here?
**A.** 1.1 µg/mL

**Q.** And the Neut. Conc. (60% plaque reduction), A2 [1]?
**A.** 1.1 µg/mL

**Q.** What about the Neut. Dilution (60% plaque reduction) (dilution (1:x)) [1] of the same substance?
**A.** 1110

**Q.** What about the Neut. Dilution (60% plaque reduction), A2 (dilution (1:x)) [1] of the same substance?
**A.** 1040

**Q.** What about the Neut. Dilution (60% plaque reduction), B2 (dilution (1:x)) [2] of the same substance?
**A.** < 20

**Q.** And the Neut. Conc. (60% plaque reduction), B1 [3]?
**A.** 2.4 µg/mL

**Q.** And the Neut. Dilution (60% plaque reduction), B1 (dilution (1:x)) [3]?
**A.** 488

**Q.** What about the Neut. Conc. (60% plaque reduction), A1 [4] of the same substance?
**A.** 9.8 µg/mL

**Q.** And the Neut. Dilution (60% plaque reduction), A1 (dilution (1:x)) [4]?
**A.** 120

**Q.** And the Kd [5]?
**A.** 0.984 nM

**Q.** What about the koff [5] of the same substance?
**A.** 3.48e-05 s⁻¹
